Data: the DeepSol protein solubility set

assay: soluble on expression in E. coli; label from the status in PepcDB or PDB records

Sequence | soluble on expression in E. coli
MELPRAFGLLLHPTSLPGPYGVGVLGREARDFLRFLKEAGGRYWQVLPLGPTGYGDSPYQSFSAFAGNPYLIDLRPLAERGYVRLEDPGFPQGRVDYGLLYAWKWPALKEAFRGFKEKASPEEREAFAAFREREAWWLEDYALFMALKGAHGGLPWNRWPLPLRKREEKALREAKSALAEEVAFHAFTQWLFFRQWGALKAEAEALGIRIIGDMPIFVAEDSAEVWAHPEWFHLDEEGRPTVVAGVPPDYFSETGQRWGNPLYRWDVLEREGFSFWIRRLEKALELFHLVRIDHFRGFEAYWEIPASCPTAVEGRWVKAPGEKLFQKIQEVFGEVPVLAEDLGVITPEVEALRDRFGLPGMKVLQFAFDDGMENPFLPHNYPAHGRVVVYTGTHDNDTTLGWYRTATPHEKAFMARYLADWGITFREEEEVPWALMHLGMKSVARLAVYPVQDVLALGSEARMNYPGRPSGNWAWRLLPGELSPEHGARLRAMAEATERL | soluble
MELRDRIDFLCKTILAIKTAGRLVLGIDGLSRSGKTTLANQLSQTLREQGISVCVFHMDDHIVERAKRYHTGNEEWFEYYYLQWDVEWLTHQLFRQLKASHQLTLPFYDHETDTHSKRTVYLSDSDMIMIEGVFLQRKEWRPFFDFVVYLDCPREIRFARENDQVKQNIQKFINRYWKAEDYYLETEEPIKRADVVFDMTS | soluble
MELRELFEVQGELDAHIEKIHPRKEGEKRLEEKILALQTELGEIANEWRQFKFWSNDREPRTERLLEEYVDGFHFVLSIGLEESKRYGQSVPIRLGLPDELTSICYETTIQQFNYLFSEIGRLYDSVTLHEVAADTEVEEAYENIIRMFIGLGEKLGFTEKEIAEGYMRKNMINHERQKNGY | not soluble
MELRNTKLEQLFYIYHRNLKYRCPMQYLTKRGFNLQDLLSVGGGLAYLGEKQWLNLSLYNFNNQLVGFLSRKVGFEKKFLYLPINKPPSKSESFLGLKHLPTET | not soluble
MELTIMSQLIDRRQNAGKKSTVNRQRFLRRYKSQIKKAVSEAVGKRSITEIDQGEQITIPAKDIYEPQFHRGHGGHIERVLPGNDNFIAGDRIKRPGGGGAGGAGGNASDSGEGEDNFVFELSREEFLELYFEDLELPDLVKKELARISTYKTVRAGVTTSGIPNNINVLRSMKQATGRRVALASPYKKRLKEAEEELERLKQLANPDKIDLLKLERDIEFFKKKIQTVPFIDTIDLRYNHRVRVPSPSTQAVMFCVMDVSGSMDEAKKDIAKRFFILLYMFLTKNYEKIELVFIRHHTSAKEVNEEEFFYSRETGGTVVSSALELLNTIIEARYPPQAWNIYVAQASDGDNWNADSPYCQELLQEKIMPLLQYFAYIEIMPRHHQSLWEVYQQVKERYPNFAMENIDNVADIYPVFRELFKRKTVAAALEHHHHHH | not soluble
MEMVKSRSKVAIIGAGFVGASAAFTMALRQTANELVLIDVFKEKAIGEAMDINHGLPFMGQMSLYAGDYSDVKDCDVIVVTAGANRKPGETRLDLAKKNVMIAKEVTQNIMKYYNHGVILVVSNPVDIITYMIQKWSGLPVGKVIGSGTVLDSIRFRYLLSEKLGVDVKNVHGYIIGEHGDSQLPLWSCTHIAGKNINEYIDDPKCNFTEEDKKKIAEDVKTAGATIIKNKGATYYGIAVSINTIVETLLKNQNTIRTVGTVINGMYGIEDVAISLPSIVNSEGVQEVLQFNLTPEEEEALRFSAEQVKKVLNEVKNL | soluble
MENFQPHKQCGYGVIMRLTSKGRYAVTAMLDVALHSQQNPVPLADISERQGISLSYLEQLFSKLRKAGLVASVRGPGGGYRLGMDSYAISIGTVIAAVDESVDATKCNGKGDCQGGTRCLTHTLWRDLSSRITDFLNNITLGELMMDNEVLEVSDRQDLHLAVSQRVSQNNSNTVTIGAAPFGINVRS | not soluble
MENILEVNQIKKYYKIKTGLLQKTQYVKAVDDVSFSIKKGQTFGLVGESGCGKSTLGKVIIRLEDATSGSIIVNGEDITRLQGKKLRKSRQQYQMIFQDPYASLNPMQMVGDIISEPILNYKKLPKEEIKKEVLYLLKCVGLSEDAYYKYAHEFSGGQRQRVGIARALALRPSLIVADEPVSALDVSVQSQVLNLLKDLQEQFNLSYLFIAHDLSVVKHISDVIGVMYLGHIVEIASDKEIYENPKHPYTKALISSIPQIDKHNNNRIILKGELPSPSNPPQGCPFHTRCPIAQDMCKKSMPELKDIGNEHQVACFYVDKVGDLND | not soluble
MENKMVEYRKKFGLSQEKLAEKLGVSRQTIISIEKGKYDPSLPLAFEIAKTFQTTIEHVFIYEGKEGEE | not soluble
MENLTVTGLVRLIGAGATMIYVVTDNERRTEQIATQAAARLKGAGSPYVWTCTEGFSRDGAVVEGIDDPVAAVGFALAQPGPLLFLFKDLPWFWGDNPYLIRALKDFAMRAKAKAIVVLGQQEGIPAALREEFVILQQGLPAMEEIKAFFEQARARDPQLAQACQERPGLLNDLVVAAQGLDLLDVERGMRGARAAGEAGGEGLVRSIFETKRAIIRTGGIMEFVANDVTPDQVGGMENLKQWMARREQAFGLEGISSGANLPKGVLMMGIAGCGKSLFVKAIAATWRLPLIRLDMAAVYDGSYGTPESSLRKAFRTAEAVAPCVLWIDEIEAGISTQGFKAEGGPASRILGSFLTWMQEKRAPVFVAATANAIEMLPAEIIRKGRFDEIFYIGLPETKGREEIFRIHLTRRKIGLSAFDVPLLAGSTKGFSGAEIEQAVQAAAFEALTGKRPMTQQDLMAAISRTVPLSVTMAEQIKKIEAWAFKRAVPA | soluble
MENPHEQVQANILSRIIGNVKRLNESVAILNQELVTINNRNKNLEIMGAICDNYHSSVQFNLEATNNKKPPL | not soluble
MENTNEAAWILSIDKFRHNEGIINFSDQNRETAYHHTIKEINVALDNFSTKAGDNNMHLVKAKTSQGTELNWHGKFSLSPLKSSGDISFVSPLKIVSDYLQQRILFNITEGSLKVNSHYDFNFAGEQPQFIINNLMASISALEIRSRDDNKKIITSDELSVDLEQLSSLEHHHHHH | not soluble
MENTVDAKKDSTIAFTGGRILTMDSEQKYAEAVVIRGDRIAAVGGTYILKSFPDAEIRDLKNRYLLPAFIDSHNHLSSFGCFFPTWANLIGLTEKEAILKAIRRQVRKEPGTGWIVGFGWFDARMGGADLTKKDLDEVSSDRPVLLIQTTFHQSVVNTRALGLLGINQSTPDPRCGIIFRESDGTPTGVLVEYAQAPVFKLVMEADTETLADLIEARAKELLQFGITAIHDPGATPAAEAAYRQLHAEGRLPVSVLMMPHGETLLDNRLRDRLQGQVTGTGDERLRVGPIKLFADGATAETVAFSLKIGGQTINSGCYRDDFEEMLFAATEKGFRVCVHSFGNATTDAVLTAFENAALRAPAGFEMRPRLEHVTLINALQIRRLASMGGCACIQPQFLSRAQNTKQVMLEDGKWYAYGDLVKGGVIVASSSDDPGGFMDARDPIKGSVMGSTMSDGEGNVIFPDQVLPFEQWLWMYTAGGAYAGGQEKERGILKKGMVADLVILEGSLDSKNPTVVAETWAAGKQVYTKELEHHHHHH | not soluble
MEQATQQIAISDAAQAHFRKLLDTQEEGTHIRIFVVNPGTPNAECGVSYCPPNAVEESDIEMKYNTFSAFIDEVSLPFLEEAEIDYVTEELGAQLTLKAPNAKMRKVADDAPLIERVEYVIQTQINPQLANHGGRITLIEITEDGYAVLQFGGGCNGCSMVDVTLKDGVEKQLVSLFPNELKGAKDITEHQRGEHSYYLEHHHHHH | soluble
MEQDTQHVKPLQTKTDIHAVLASNGRIIYISANSKLHLGYLQGEMIGSFLKTFLHEEDQFLVESYFYNEHHLMPCTFRFIKKDHTIVWVEAAVEIVTTRAERTEREIILKMKVLEEETGHQSLNCEKHEIEPASPESTTYITDDYERLVENLPSPLCISVKGKIVYVNSAMLSMLGAKSKDAIIGKSSYEFIEEEYHDIVKNRIIRMQKGMEVGMIEQTWKRLDGTPVHLEVKASPTVYKNQQAELLLLIDISSRKKFQTILQKSRERYQLLIQNSIDTIAVIHNGKWVFMNESGISLFEAATYEDLIGKNIYDQLHPCDHEDVKERIQNIAEQKTESEIVKQSWFTFQNRVIYTEMVCIPTTFFGEAAVQVILRDISERKQTEELMLKSEKLSIAGQLAAGIAHEIRNPLTAIKGFLQLMKPTMEGNEHYFDIVFSELSRIELILSELLMLAKPQQNAVKEYLNLKKLIGEVSALLETQANLNGIFIRTSYEKDSIYINGDQNQLKQVFINLIKNAVESMPDGGTVDIIITEDEHSVHVTVKDEGEGIPEKVLNRIGEPFLTTKEKGTGLGLMVTFNIIENHQGVIHVDSHPEKGTAFKISFPKK | not soluble
MEQFLDNIKDLEVTTVVRAQEALDKKETATFFIGRKTCPYCRKFAGTLSGVVAETKAHIYFINSEEPSQLNDLQAFRSRYGIPTVPGFVHITDGQINVRCDSSMSAQEIKDFAGL | soluble
MEQINEKNFNFYNRIGLDTFQALAKDGGFSTFVDLEIAYRYIQPTENIAEIGAGYGRCIDFLLAKKHQGKIIAVEQSPKLCEHLRAVYSSTIKIVEGDIYKVSFDHQIDAALWMWSGMIDFSVEEQAAVIKHIHELLTQKGKLFIDIPRIGIKTIADHIDQQRIKLTTDFGEIECYIPLSSEVKEYADAAGFTRVDEINYETATDKKRTMYILMK | not soluble
MEQPTRPGFATRRRTQLFDALVDLILVEGFAHLTLDEIANRLRCSKSTLYTLAGSKEQLVRAATVHFFRRATDDVESHIEPIAGARERITAYLSAVGTALSAASDQFMADLDAFPPAREVYERNTQFAAGRVQELITEGVAGGDFRDVHAAFAADLAATMMVRIQQRGVRDSTGLDDAHAYAELAAILTGGISA | not soluble
MEQTTIDGISLSLAGPVELTLRWVGQDELLKQLLAAWMVIDEKDIPFNPRLIGKPGVGKTTLAYAAARRLDRPVYLFQATMDTRPEDLIITPVIGPDGKIQYAASALVSAMLKGGVLILDEGNRMSEKAWASLAPLLDDRRYVESIITGLRVPAHRDFRIVVTMNEDSSTFEVPEYIHSRLQPQIFIDFPEADEELLILKENLPFAPSRILAYVVDFLQRAHAADELYSVRDGINIARYALKMMAATERDSVELLPLAVERVLGDEALRYLKLEHHHHHH | not soluble
MERINFIFGIHNHQPLGNFGWVFEEAYNRSYRPFMEILEEFPEMKVNVHFSGPLLEWIEENKPDYLDLLRSLIKRGQLEIVVAGFYEPVLAAIPKEDRLVQIEMLKDYARKLGYDAKGVWLTERVWQPELVKSLREAGIEYVVVDDYHFMSAGLSKEELFWPYYTEDGGEVITVFPIDEKLRYLIPFRPVKKTIEYLESLTSDDPSKVAVFHDDGEKFGVWPGTYEWVYEKGWLREFFDAITSNEKINLMTYSEYLSKFTPRGLVYLPIASYFEMSEWSLPAKQAKLFVEFVEQLKEEGKFEKYRVFVRGGIWKNFFFKYPESNFMHKRMLMVSKAVRDNPEARKYILKAQCNDAYWHGVFGGIYLPHLRRTVWENIIKAQRYLKPENKILDVDFDGRAEIMVENDGFIATIKPHYGGSIFELSSKRKAVNYNDVLPRRWEHYHEVPEATKPEKESEEGIASIHELGKQIPEEIRRELAYDWQLRAILQDHFIKPEETLDNYRLVKYHELGDFVNQPYEYEMIENGVKLWREGGVYAEEKIPARVEKKIELTEDGFIAKYRVLLEKPYKALFGVEINLAVHSVMEKPEEFEAKEFEVNDPYGIGKVRIELDKAAKVWKFPIKTLSQSEAGWDFIQQGVSYTMLFPIEKELEFTVRFREL | soluble
MERKMATHFARGILTEGHLISVRLPSQCHQEARNIPPHRQSRFLASRGLLAELMFMLYGIGELPEIVTLPKGKPVFSDKNLPSFSISYAGNMVGVALTTEGECGLDMELQRATRGFHSPHAPDNHTFSSNESLWISKQNDPNEARAQLITLRRSVLKLTGDVLNDDPRDLQLLPIAGRLKCAHVNHVEALCDAEDVLVWSVAVTPTIEKLSVWELDGKHGWKSLPDIHSRANNPTSRMMRFAQLSTVKAFSPN | not soluble
